Test results as given in the supplement of paper PMC10899765.

Key:
Conditions in all cases: 20 nM; 72 h
MCF10A [1] = assay: percent viability (nuclei count relative to siNT); higher = more viable cells
Protocol: (§1)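 After 72 h, cells were fixed and stained with Hoechst and anti-fibrillarin, and nucleoli per nucleus were counted with CellProfiler. Values are plate-adjusted percent effect for the one-nucleolus and 5+ nucleoli phenotypes, normalised to siNT (0%) and to the positive controls siNOL11 or siKIF11 (100%), as the mean of biological triplicates. Percent viability is the nuclei count relative to siNT.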

MCF10A [2] = assay: 5+ nucleoli phenotype percent effect (relative to siNT 0% and siKIF11 100%); higher = more cells with five or more nucleoli
Protocol: as §1

MCF10A [3] = assay: nucleolar rRNA biogenesis percent inhibition (5-EU; siNT 0%, siPOLR1A 100%); higher = stronger inhibition of nucleolar rRNA biogenesis
Protocol: (§2)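 Primary screen hits (microRNA mimics) were re-picked and rescreened for nucleolar number in MCF10A cells (hitpick validation; percent effect relative to the siNT and siNOL11/siKIF11 controls). A secondary screen measured nucleolar rRNA biogenesis inhibition: after 72 h of transfection at 20 nM, cells were labelled 1 h with 1 mM 5-EU and nucleolar 5-EU signal was quantified, normalised to siNT (0%) and siPOLR1A (100%). Means are over n=5 (MCF10A) or n=2 (RPE-1, HeLa) biological replicates.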

MCF10A [4] = assay: one-nucleolus phenotype percent effect, hitpick validation (relative to siNT 0% and siNOL11 100%); higher = more cells with one nucleolus
Protocol: as §2

MCF10A [5] = assay: 5+ nucleoli phenotype percent effect, hitpick validation (relative to siNT 0% and siKIF11 100%); higher = more cells with five or more nucleoli
Protocol: as §2

MCF10A [6] = assay: one-nucleolus phenotype percent effect (relative to siNT 0% and siNOL11 100%); higher = more cells with one nucleolus (ribosome biogenesis inhibition)
Protocol: as §1

Sequence | percent viability (MCF10A [1]) | 5+ nucleoli phenotype percent effect (MCF10A [2]) | nucleolar rRNA biogenesis percent inhibition (MCF10A [3]) | one-nucleolus phenotype percent effect (MCF10A [4]) | 5+ nucleoli phenotype percent effect (MCF10A [5]) | one-nucleolus phenotype percent effect (MCF10A [6])
UCUCCCUUGAGGGCACUUU [hsa-miR-4287] | 66% | 200% | 82.1% | -44.9% | 70% | -43.1%
AGGAGCUAUCCACUCCAGGUGUCC [hsa-miR-6500-5p] | 19.2% | -33% | 61.3% | 153% | 5.46% | 70.9%
CAAAGGUAUUUGUGGUUUUUG [hsa-miR-548m] | 39.4% | -40.8% | 4.11% | 130% | -10.9% | 68.6%
AAGCAGCUGCCUCUGAGGC [hsa-miR-646] | 32.4% | -42.6% | 130% | 152% | -14.4% | 70.7%
UAGGAGCUCAACAGAUGCCUGUU [hsa-miR-3139] | 18.8% | -23.5% | 5.86% | 181% | -8.78% | 84.1%
GAGGGCGGGUGGAGGAGGA [hsa-miR-3141] | 20.1% | -29.5% | 51.1% | 129% | -4.23% | 72.7%
AAAGGCAUAAAACCAAGACA [hsa-miR-3910] | 11.9% | -39.2% | 12.7% | 167% | -8.76% | 97%
CUCUCCUCCCGGCUUC [hsa-miR-4279] | 14.1% | -34.9% | 26.8% | 188% | -6.3% | 87.9%
AGAGCAGAAGGAUGAGAU [hsa-miR-4468] | 16.5% | -43.6% | 102% | 109% | -14.8% | 66.8%
UGUGUGGAUCCUGGAGGAGGCA [hsa-miR-3911] | 12.9% | -47% | 53.8% | 129% | -10.6% | 70.3%
GAGCAAUGUAGGUAGACUGUUU [hsa-miR-3908] | 19.8% | -34.4% | 7.34% | 166% | -5.96% | 89.1%
CUCUCCCUCUUUACCCACUAG [hsa-miR-6867-3p] | 61.8% | 133% | 71.1% | -40.4% | 49.1% | -35%
AGAAAGGGUGGCAAUACCUCUU [hsa-miR-5681a] | 8.23% | -33.1% | 76.4% | 165% | -15.4% | 114%
UCUGCAGGGUUUGCUUUGAG [hsa-miR-1205] | 20.5% | -53.7% | 15.8% | 166% | -13.7% | 96.8%
CCGUCGCCGCCACCCGAGCCG [hsa-miR-1181] | 128% | 96.7% | 86.9% | -55.6% | 40.2% | -33.1%
CUCGGCGCGGGGCGCGGGCUCC [hsa-miR-1469] | 30% | -35.5% | 96.7% | 158% | -13.8% | 74.3%
AGGAGCAGUGCCGGCCAAGGCGCC [hsa-miR-6081] | 22.9% | -52.9% | 57.3% | 152% | -16.9% | 81.7%
UGAAUGGUAAAGCGAUGUCACA [hsa-miR-4790-3p] | 32.2% | -42.5% | 105% | 78.8% | -2.28% | 71.6%
CAAUGGCACAAACUCAUUCUUGA [hsa-miR-5197-5p] | 22.7% | -38.9% | 16.5% | 65.4% | 20.5% | 71%

Sequence | percent viability (MCF10A [1]) | 5+ nucleoli phenotype percent effect (MCF10A [2]) | nucleolar rRNA biogenesis percent inhibition (MCF10A [3]) | one-nucleolus phenotype percent effect (MCF10A [4]) | 5+ nucleoli phenotype percent effect (MCF10A [5]) | one-nucleolus phenotype percent effect (MCF10A [6])
CACCAGGGCAGAGCAGGGCUGA [hsa-miR-6753-5p] | 15% | -40% | 91.2% | 141% | -17.4% | 68.1%
ACUGGGGAGCAGAAGGAGAACC [hsa-miR-4667-5p] | 9.07% | -15.5% | 81.2% | 107% | 9.27% | 67.8%
GAGGGCAUGCGCACUUUGUCC [hsa-miR-4761-3p] | 20% | -23.9% | 76% | 86.5% | 14.2% | 85.1%
UUCUCCCACUACCAGGCUCCCA [hsa-miR-4713-5p] | 32.9% | 95.9% | 82.4% | -22.9% | 43% | -12.1%
AGUGUGGCUUUCUUAGAGC [hsa-miR-644a] | 35% | -48.4% | 101% | 170% | -13.1% | 93.5%
CUAGGGGGUUUGCCCUUG [hsa-miR-4278] | 13.5% | -35.5% | 45.6% | 151% | -14.3% | 67.1%
CUGGCGGAGCCCAUUCCAUGCCA [hsa-miR-4730] | 18.2% | -43.2% | 91.1% | 230% | -12.7% | 118%
AAGGAGAUGCUCAGGCAGAU [hsa-miR-6888-5p] | 31% | -54% | 50.6% | 173% | -11.7% | 86.2%
CUGGCGGCUGUGUCUUCACAG [hsa-miR-6770-3p] | 18.4% | -40.2% | -8.82% | -1.66% | 1.2% | 110%
GGCUCCUCCUCUCAGGAUGUG [hsa-miR-4268] | 41.5% | 82.4% | 133% | -21.2% | 51.9% | -15.6%
UGGAGUCCAGGAAUCUGCAUUUU [hsa-miR-1289] | 20% | -51.8% | 68.1% | 130% | -9.57% | 78.3%
UGGUCUGCAAAGAGAUGACUGU [hsa-miR-4527] | 12.3% | -39.4% | 67.3% | 151% | -1.79% | 104%
UUUGGGACUGAUCUUGAUGUCU [hsa-miR-3913-5p] | 69.2% | 132% | 84.5% | -50.6% | 61% | -47.3%
GGCUGGGUGCUCUUGUGCAGU [hsa-miR-5589-5p] | 17.4% | -4.52% | 70% | 92.2% | 21.5% | 71%
UGGCAAGGAAAGAAGAGGAUCA [hsa-miR-6809-5p] | 9.15% | -45.7% | 69.8% | 207% | -2.51% | 115%
ACUGGGCUUGGAGUCAGAAG [hsa-miR-378g] | 16.8% | -34.6% | 57.9% | 159% | -9.08% | 91.2%
GAGCAGGCGAGGCUGGGCUGAA [hsa-miR-4690-5p] | 11.1% | -41.1% | 101% | 176% | -12.8% | 70.8%
AAAAGGCGGGAGAAGCCCCA [hsa-miR-4484] | 12% | -51.6% | 69.6% | 199% | -14.7% | 92.8%
GGGAUUCUGUAGCUUCCU [hsa-miR-4320] | 28.6% | -18.6% | – | – | – | 50%

Sequence | percent viability (MCF10A [1]) | 5+ nucleoli phenotype percent effect (MCF10A [2]) | nucleolar rRNA biogenesis percent inhibition (MCF10A [3]) | one-nucleolus phenotype percent effect (MCF10A [4]) | 5+ nucleoli phenotype percent effect (MCF10A [5]) | one-nucleolus phenotype percent effect (MCF10A [6])
UGGUGGAGGAAGAGGGCAGCUC [hsa-miR-6880-5p] | 3.74% | -19.7% | – | – | – | -4.17%
GAGGGCAGCGUGGGUGUGGCGGA [hsa-miR-4632-5p] | 64.3% | 13.1% | – | – | – | 0.575%
AAAGACCGUGACUACUUUUGCA [hsa-miR-548ao-3p] | 80.6% | -18.1% | – | – | – | 18.2%
CAAUUCUCAAAGGAGCCUCCC [hsa-miR-5571-5p] | 32.7% | -26.3% | – | – | – | 34%
CCUGGCAUAUUUGGUAUAACUU [hsa-miR-4720-5p] | 31.3% | 46.4% | – | – | – | 1.6%
ACCCGUCCCGUUCGUCCCCGGA [hsa-miR-1247-5p] | 116% | 2.26% | – | – | – | -16.3%
UCAGGCAGUGUGGGUAUCAGAU [hsa-miR-4692] | 23.4% | -11.4% | – | – | – | 23.2%
AGGUGGUCCGUGGCGCGUUCGC [hsa-miR-323a-5p] | 19.8% | -21.1% | – | – | – | 36.4%
GGGGGGUGUGGAGCCAGGGGGC [hsa-miR-6752-5p] | 79.1% | 41.7% | – | – | – | -21.9%
UGAGCCUCUCCUUCCCUCCAG [hsa-miR-6823-3p] | 31.2% | 12.9% | – | – | – | -2.85%
CCAAGGAAGGAGGCUGGACAUC [hsa-miR-6830-5p] | 47.1% | -10.3% | – | – | – | 13.3%
CGGUGGACUGGAGUGGGUGG [hsa-miR-8071] | 9.26% | -15.7% | – | – | – | 22.4%
UGGAAGGAGGUUGCCGGACGCU [hsa-miR-4533] | 46.4% | -14.3% | – | – | – | 9.34%
UGGAGAUCCAGUGCUCGCCCGAU [hsa-miR-4683] | 56.7% | -20.1% | – | – | – | 24.4%
CAGUUCUGCUGUUCUGACUCUAG [hsa-miR-6874-3p] | 28.9% | -30.6% | – | – | – | -4.11%
AAAGUGCUUCCUUUUAGAGGG [hsa-miR-520b] | 70.9% | 70.5% | – | – | – | -19.2%
UGUCUUCUCUCCUCCCAAACAG [hsa-miR-6740-3p] | 9.9% | -27.6% | – | – | – | 42.8%
GUUUCACCAUGUUGGUCAGGC [hsa-miR-5096] | 49% | -17.6% | – | – | – | 21.9%
AAACAAACAUGGUGCACUUCUU [hsa-miR-495-3p] | 93.6% | -10.6% | – | – | – | 5.47%
